Data published in patent publication US7176008.

Legend:
[1] = biological target: human carboxypeptidase N (human) (UniProt P15169)
thrombin = test: cell-based or functional assay

Sequence of human carboxypeptidase N (human) (P15169 21-458 limits assumed, chain 1 of 2): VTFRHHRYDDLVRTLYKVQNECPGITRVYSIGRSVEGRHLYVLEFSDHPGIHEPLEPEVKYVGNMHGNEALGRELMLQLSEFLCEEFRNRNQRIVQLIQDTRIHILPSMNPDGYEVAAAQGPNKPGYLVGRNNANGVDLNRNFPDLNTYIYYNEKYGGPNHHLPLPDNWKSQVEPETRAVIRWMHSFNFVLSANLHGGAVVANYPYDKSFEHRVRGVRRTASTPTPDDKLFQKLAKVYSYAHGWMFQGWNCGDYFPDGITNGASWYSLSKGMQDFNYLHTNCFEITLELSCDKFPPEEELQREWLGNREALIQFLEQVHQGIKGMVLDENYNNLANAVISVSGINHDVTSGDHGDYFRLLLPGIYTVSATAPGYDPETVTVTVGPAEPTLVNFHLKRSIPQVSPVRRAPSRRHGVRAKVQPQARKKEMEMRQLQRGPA
Sequence of human carboxypeptidase N (human) (P22792 22-545 limits assumed, chain 2 of 2, further chain): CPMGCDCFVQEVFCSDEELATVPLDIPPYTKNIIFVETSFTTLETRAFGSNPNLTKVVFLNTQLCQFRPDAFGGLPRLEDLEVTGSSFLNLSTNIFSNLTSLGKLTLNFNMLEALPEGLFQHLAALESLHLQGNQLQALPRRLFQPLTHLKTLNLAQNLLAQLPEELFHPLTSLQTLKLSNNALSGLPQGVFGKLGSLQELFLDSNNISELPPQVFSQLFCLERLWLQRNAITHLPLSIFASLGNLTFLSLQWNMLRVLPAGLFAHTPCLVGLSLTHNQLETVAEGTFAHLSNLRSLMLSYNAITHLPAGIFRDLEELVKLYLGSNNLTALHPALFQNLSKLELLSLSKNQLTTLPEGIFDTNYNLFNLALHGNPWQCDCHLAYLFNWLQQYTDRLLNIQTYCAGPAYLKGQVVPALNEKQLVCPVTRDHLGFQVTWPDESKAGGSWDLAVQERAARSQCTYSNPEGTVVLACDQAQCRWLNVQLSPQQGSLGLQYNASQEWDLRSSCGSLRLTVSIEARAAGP

Substance | Ki [1] [nM] | increase of TAFIa generation in diluted human plasma (thrombin) [fold]
protamine sulfate (grade X from salmon, Mr 5,000) (peptide) | 970 | 
rabbit lung thrombomodulin |  | 30 to 35
